Source: patent US20080014143A1 (SANFORD BURNHAM MEDICAL RESEARCH INSTITUTE, published 2008)
Bridge positions count the residues as written; N and C are the ends. Ends that are not written are not given here.

Key:
[1] = molecular target: purified gC1qR/p32 protein (coated onto microtiter wells) (human) (UniProt Q07021); assay: phage binding to purified p32 coated on microtiter wells, plaque assay
[2] = molecular target: gC1qR/p32 at the cell surface (C8161 cells transfected with p32 cDNA; MDA-MB-435 and MDA-MB-435 S35 cells; Raji cells) (human) (UniProt Q07021); assay: inhibition of LyP-1 phage binding to Raji cells; competitor LyP-1 phage; 40 µg/ml mAb
[3] = molecular target: purified gC1qR/p32 protein (coated onto microtiter wells) (human) (UniProt Q07021); assay: inhibition of phage binding to purified p32 on wells; competitor LyP-1 phage; 20 µg/ml mAb
[4] = molecular target: T1, gC1qR/p32 at the cell surface (C8161 cells transfected with p32 cDNA); MDA-MB-435 and MDA-MB-435 S35 cells; … (human, UniProt Q07021 74-282); assay: FACS of FITC-peptide on live MDA-MB-435 cells transfected with p32 siRNA or control siRNA
T1 construct: whole, on cells; also called cell surface p32; cell surface gC1qR/p32
T1 sequence (looked up): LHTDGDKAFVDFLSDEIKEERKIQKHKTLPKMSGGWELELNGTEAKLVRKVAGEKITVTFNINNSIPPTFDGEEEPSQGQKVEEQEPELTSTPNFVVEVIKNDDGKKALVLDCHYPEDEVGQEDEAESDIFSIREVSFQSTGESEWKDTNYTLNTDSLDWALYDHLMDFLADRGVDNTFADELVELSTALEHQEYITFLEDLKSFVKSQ
Method: 48 hours after transfection, inhibition of p32 expression was checked by immunoblot analysis and immunostaining (upper panels). β-actin was used as a control. (Lower panels) cells transfected with p32 siRNA or control siRNA were incubated for 1 h at 4 °C in the presence of 10 μM FITC conjugated LyP-1 peptide or a control peptide, […] (ARAL, SEQ ID NO: 5), which has same overall charge as LyP-1. Cells incubated in the absence of peptide served as negative control. Down-regulation of p32 expression reduced LyP-1 binding to the cells (left panel), but control peptide fluorescence was unaffected (right panel). A representative experiment out of three is shown. C. […] Insertless phage was used to determine background phage binding. The results are representative of three independent experiments and are expressed as percentage of phage binding (±SD), with binding of LyP-1 phage in the presence of mIgG1 set as 100%.
MDA-MB-435 cells were transiently transfected with gC1qR/p32-specific or control siRNAs. […] The amount of fluorescence in living cells was analyzed by FACS. Cells incubated in the absence of peptide served as FITC negative control.

[5] = molecular target: T2, endogenous gC1qR/p32 of tumor cells and tissues (extracts of MDA-MB-435 cells, BT549 cells, MDA-MB-435 tumor … (human, UniProt Q07021 74-282)); assay: pull-down from MDA-MB-435 cell extract with biotinylated peptide on streptavidin beads, anti-p32 immunoblot
T2 construct: mature; 33 kD band in cell extracts; in tumor xenograft extracts an additional 75 kD band was also identified as gC1qR/p32; also called gC1q/p32 receptor; p32/p33/gC1qR/HABP1
T2 sequence (looked up): T1 sequence (looked up)
From the text: A tumor homing peptide, CREKA (SEQ ID NO: 3), and a peptide CRV which resembles Lyp-1 in its amino acid composition and cyclic structure (SEQ ID NO: 4, […]), were used as negative controls. (a) Left panel: silver staining of Lyp-1 bound proteins. The arrow indicates a specific 33 kD band, which was identified as gC1q/p32R by mass spectrometry. Right panel: immunoblot of total cell extract (Tot lysate) and proteins bound to Lyp-1 and control peptides using a monoclonal antibody against gC1q/p32 receptor. The antibody recognizes a band of 33 kD in the total proteins lysate and in the Lyp-1 pull down. Anti gC1q/p32 receptor reactive bands are not detected in the pull downs from both control peptides. […] The monoclonal antibody against gC1qR/p32 recognized a 75 kD and a 33 kD band only in the Lyp-1 peptide pull down (b-right panel).
A tumor homing peptide, CREKA (SEQ ID NO:3), and a peptide CRV which resembles Lyp-1 in its amino acid composition and cyclic structure (SEQ ID NO:4, […]), were used as negative controls. The Lyp-1 bound proteins were visualized using silver staining and immunobloting. […] The arrow indicates a specific 33 kD band, which was identified as gC1qR/p32 by mass spectrometry. […] The antibody recognizes a band of 33 kD in the total proteins lysate and in the Lyp-1 pull down. Anti gC1qR/p32 reactive bands are not detected in the pull downs from both control peptides.

For “LyP-1 phage (phage displaying the LyP-1 peptide)”, the fold binding over insertless control phage [1] was 60 fold.

For “mouse monoclonal anti-gC1qR/p32 antibody 60.11”, the percent reduction of LyP-1 binding [2] was 50% and the percent reduction of LyP-1 phage binding [3] was 90%.

ARALPSQRSR (also: FITC conjugated, site not given here, Same overall charge as LyP-1) [FITC conjugated control peptide ARALPSQRSR]: no binding (tested: 10 µM) [4].

B1: biotinylated CREKA peptide (peptide)
peptide: CREKA
modifications: also: biotinylated, site not given here
notes: Negative control in the pull-down; also called control peptide
B1: no binding [5].

B2: biotinylated CRV peptide (CRVRTRSGC) (peptide)
peptide: CRVRTRSGC
modifications: disulfide 1-9 (inferred); also: biotinylated, site not given here
notes: as for B1
B2: no binding [5].
